# In patent US20130156706A1 (BRACCO SUISSE S A, published 2013):
# T1: mouse Fc P-Selectin (CD62P-Fc Chimera, from R&D Systems) (mouse, UniProt Q01102 42-709)
# T1 construct: Bought reagent, coated in the flow chamber; also called mouse P-selectin; not shown: Fc part of the commercial chimera
# T1 sequence (looked up): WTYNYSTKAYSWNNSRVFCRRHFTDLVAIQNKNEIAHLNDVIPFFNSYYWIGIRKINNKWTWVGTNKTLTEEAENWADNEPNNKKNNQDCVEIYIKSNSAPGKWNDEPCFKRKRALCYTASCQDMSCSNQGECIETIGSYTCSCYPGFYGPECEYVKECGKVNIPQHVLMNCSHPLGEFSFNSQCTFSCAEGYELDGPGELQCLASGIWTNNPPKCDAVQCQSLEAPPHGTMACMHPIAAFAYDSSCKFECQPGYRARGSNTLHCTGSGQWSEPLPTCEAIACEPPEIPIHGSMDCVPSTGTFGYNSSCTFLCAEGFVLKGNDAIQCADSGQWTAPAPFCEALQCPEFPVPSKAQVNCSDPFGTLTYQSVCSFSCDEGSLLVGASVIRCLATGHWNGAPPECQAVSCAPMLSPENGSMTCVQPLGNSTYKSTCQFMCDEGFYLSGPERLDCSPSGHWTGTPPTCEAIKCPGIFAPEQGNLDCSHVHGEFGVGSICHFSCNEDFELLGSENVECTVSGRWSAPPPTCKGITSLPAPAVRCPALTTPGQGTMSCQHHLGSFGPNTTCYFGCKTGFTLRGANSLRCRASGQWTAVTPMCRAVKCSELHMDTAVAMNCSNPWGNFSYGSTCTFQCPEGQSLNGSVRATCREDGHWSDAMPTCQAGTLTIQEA
# B1: Fr-1, purified fragment of rPSGL-Ig (SEQ ID NO:3), dimeric, thiolated and bound to DSPE-PEG-maleimide on gas-filled microvesicles (Example 6) (other)
# chain: QATEYEYLDYDFLPETEPPEMLRNSTDTTPLTGPGTPESTTVEPAARPHTCPPCPAPEALGAPSVFLFPPK
# modifications: glycosylated (fragment of glycosylated rPSGL-Ig); thiolated with SATA and deacetylated, then coupled to DSPE-PEG-maleimide of the microvesicle envelope
# notes: Disulfide-linked homodimer, about 32 kDa by MALDI-ToF; also called dimeric Fr-1
# B2: Monomeric Fr-1 (Fr-1 of SEQ ID NO:3 reduced with TCEP) bound to DSPE-PEG-maleimide on gas-filled microvesicles (Example 8) (other)
# chain: B1 chain
# modifications: glycosylated (fragment of glycosylated rPSGL-Ig); disulfide bonds reduced with TCEP, free cysteine thiols coupled to DSPE-PEG-maleimide of the microvesicle envelope
# notes: also called reduced monomeric Fr-1
# B3: rPSGL-Ig (glycosylated SEQ ID NO: 4), thiolated and bound to DSPE-PEG-maleimide on gas-filled microvesicles (Example 4) (Fc fusion)
# chain: QATEYEYLDYDFLPETEPPEMLRNSTDTTPLTGPGTPESTTVEPAARPHTCPPCPAPEALGAPSVFLFPPKPKDTLMISRTPEVTCVVVDVSHEDPEVKFNWYVDGVEVHNAKTKPREEQYNSTYRVVSVLTVLHQDWLNGKEYKCKVSNKALPVPIEKTISKAKGQPREPQVYTLPPSREEMTKNQVSLTCLVKGFYPSDIAVEWESNGQPENNYKTTPPVLDSDGSFFLYSKLTVDKSRWQQGNVFSCSVMHEALHNHYTQKSLSLSPGK
# modifications: glycosylated; amino groups thiolated with Traut reagent (2-iminothiolane) and coupled to DSPE-PEG-maleimide of the microvesicle envelope
# notes: also called recombinant PSGL-Ig; dimPSGL-1
# Target: T1, mouse Fc P-Selectin (CD62P-Fc Chimera, …)
# Assay: flow chamber adhesion of microvesicles on a mouse P-selectin-Fc coating
# Procedure: To test the effective binding, targeted microvesicles prepared according to comparative example 4 were injected in a flow chamber set up comprising a coating of mouse Fc P-Selectin (CD62P-Fc Chimera, from R&D Systems (Minneapolis, Minn., USA). Microvesicles (at equivalent number of 80×10⁶/400 μL TBS++) were injected through the flow chamber (FCS2, Bioptech, USA) in a bolus fashion and their adhesion onto the mouse P-selectin coating layer was assessed over a period of 10 min at a flow rate of 1.0 mL/min (shear rate of 714 s⁻¹) in the presence of 50% human plasma in PBS (v:v, Biomeda collected on citrate, ref. ES1020P, Stehelin & Cie AG). A quantitative analysis of microvesicles accumulation was performed by counting the number of microvesicles adhering in the observed area at 2 min intervals over the total 10 min infusion, using the image processing program Analysis FIVE (SIS, Germany). After 10 min, five pictures were taken randomly and the number of bound microvesicles was measured and expressed as the number of bound bubbles at 10 min (NBB). Each observed area was 183×137 μm, as measured with the aid of a stage micrometer. Measurement was performed between the middle and the exit of the chamber.
# Similarly, suspensions of targeted microvesicles prepared according to example 6 (Fr-1 targeting ligand) and according to example 8 (monomeric FR-1) were injected in a flow chamber as described above, and their binding activity determined according to the above procedure.
row,binding result,Binder
1,binds,B1
2,binds,B2
3,binds,B3
